Positions count from the first letter of the chain named. Each block holds one binder with its values, some of them ahead of it.
Key:
[1] = target: T1, human CXCR3 (human, UniProt P49682 1-368); test: equilibrium competition receptor binding, SPA, [125I]-CXCL11 tracer, membranes of CXCR3-expressing HEK cells
T1 construct: whole, on cells; in FACS and chemotaxis on whole transfected HEK or L1.2 cells; also called GPR9
T1 sequence (looked up): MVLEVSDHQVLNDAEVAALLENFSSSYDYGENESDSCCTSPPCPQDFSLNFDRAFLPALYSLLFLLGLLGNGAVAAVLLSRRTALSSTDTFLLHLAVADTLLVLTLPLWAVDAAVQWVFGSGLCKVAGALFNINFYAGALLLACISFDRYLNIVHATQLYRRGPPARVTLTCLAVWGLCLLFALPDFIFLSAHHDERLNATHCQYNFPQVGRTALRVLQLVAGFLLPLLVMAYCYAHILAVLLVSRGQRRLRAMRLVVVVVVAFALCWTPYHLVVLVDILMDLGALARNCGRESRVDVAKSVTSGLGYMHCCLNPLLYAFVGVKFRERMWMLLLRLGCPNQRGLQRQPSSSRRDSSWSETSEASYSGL
Protocol: The assays were carried out on membranes from HEK cells stably expressing CXCR3 using a Scintillation Proximity Assay (SPA), with [¹²⁵I]-CXCL11 as tracer. Radiolabelled CXCL11 (recombinant human I-TAC; Peprotech) was generated and tested according to the [¹²⁵I] supplier (Amersham; specific activity of […]), also to check for CXCR3-expressing HEK and L1.2 clones positively stained during FACS analysis.
Competitors were prepared by serial dilutions (range from 10⁻⁶ to 10⁻¹² M) of the unlabelled CXCL11, or one of its mutant, in the binding buffer (50 mM HEPES pH 7.2, 1 mM CaCl₂, 5 mM MgCl₂, 0.15 M NaCl and 0.5% Bovine Serum Albumin). Wheat germ SPA beads (Amersham) were solubilised in PBS to 50 mg/ml, and diluted in the binding buffer to a 10 mg/ml, and the final concentration in the assay was 0.25 mg/well. Cell membranes expressing CXCR3 were stored at −80° C. and diluted in the binding buffer to 20 μg/ml. Equal volumes of membrane and beads stocks were mixed before performing the assay to reduce background. The final membrane concentration was 5 μg/well and that of [¹²⁵I]-CXCL11 was 0.05 nM. The plates were incubated at room temperature with agitation for 4 hours. Radioactivity was counted (1 minute/well) in a beta counter. Data from triplicate samples were analysed using Prism® software (GraphPad).
Finally, an equilibrium competition receptor-binding assay was performed to compare the properties of the muteins on the binding of the specific receptor CXCR3 (FIG. 3). Samples containing a constant amount of radiolabelled, commercial CXCL11 were mixed with serial dilutions of CXCL11-WT, or of one of the muteins, and then incubated with membranes prepared from CXCR3-expressing HEK cells. […] Therefore, the affinity for the receptor is substantially retained in heparin-binding defective CXCL11-WT carboxyl-terminal mutants, whilst the mutations in amino-terminus affect specifically receptor binding, a feature which appears as clearly distinct.

[2] = target: T1, human CXCR3; test: radioligand equilibrium binding on CXCR3-transfected HEK and L1.2 clones

binding result [1]: binds
B1: mature human CXCL11 (CXCL11-WT) (ligand)
chain: FPMFKRGRCLCIGPGVKAVKVADIEKASIMYPSNNCDKIEVIITLKENKGQRCLNPKSKQARLIIKKVERKNF
notes: 73 residues with no additional residues; also called hCXCL11; I-TAC

binding result [2]: binds
B2: [125I]-CXCL11 (radiolabelled recombinant human I-TAC; Peprotech) (ligand, UniProt O14625 22-94, looked up)
chain: B1 chain
modifications: [125I] label, site not stated
notes: Commercial protein; also called Radiolabelled CXCL11; radiolabelled, commercial CXCL11

reduction in the affinity for CXCR3 against CXCL11-WT [1]: ≤ 1 order of magnitude
B3: CXCL11-4B4 (ligand)
chain: B1 chain with K66A, K67A, R70A, K71A
notes: Mutein of mature human CXCL11; E. coli, leader cleaved with caspase 8; also called CXCLII-4B4

reduction in the affinity for CXCR3 against CXCL11-WT [1]: ≤ 1 order of magnitude
B4: CXCL11-3B3 (ligand)
chain: B1 chain with K57A, K59A, R62A
notes: Mutein of mature human CXCL11; E. coli, leader cleaved with caspase 8; also called CXCLII-3B3

reduction in the affinity for CXCR3 against CXCL11-WT [1]: ≤ 1 order of magnitude
B5: CXCL11-2B3 (ligand)
chain: B1 chain with K46A, K49A, R52A
notes: Mutein of mature human CXCL11; E. coli, leader cleaved with caspase 8; also called CXCLII-2B3

Source: patent US20060204498A1 (MERCK SERONO, published 2006)
